In article PMC8565348:

Experiments:
[1] = target: His6-BrxU WT (Escherichia fergusonii ATCC 35469); experiment: SEC; analytical SEC, Superdex 200 Increase 5/150, 20 mM Tris-HCl pH 7.9, 150 mM NaCl; 500 nM BrxU pre-incubated at 37°C for 15 min with 10 mM MgSO4, no nucleotide; dimer to monomers
[2] = target: untagged BrxU (Escherichia fergusonii ATCC 35469); experiment: SEC; analytical SEC, Superdex 200 Increase 5/150, 20 mM Tris-HCl pH 7.9, 150 mM NaCl; 500 nM BrxU pre-incubated at 37°C for 15 min; no nucleotide, no MgSO4; dimer to monomers

| stoichiometry N [1] | stoichiometry N [2] | Substance |
| --- | --- | --- |
| 2 |  | His6-BrxU WT (enzyme) |
|  | 2 | untagged BrxU (enzyme) |
